In US20250339466A1 (published 2025):

What was measured:
[1] = target: T1, Bio-cyBCMA-His (biotinylated cynomolgus BCMA with His tag) (cynomolgus, UniProt A0A2K5UD97 1-53, Biotinylated (site not stated); C- or N-terminal His tag not carried in the letters); assay: ELISA, periplasmic extract of scFv on biotinylated cynomolgus BCMA-His
T1 construct: not shown: biotin label

[2] = target: T2, human BCMA on BCMA overexpressing CHO cells (human, UniProt Q02223 1-184); assay: flow cytometry, periplasmic extract of scFv on cells with human BCMA
T2 construct: also called hBCMA CHO; Hu BCMA (FACS)
T2 chain: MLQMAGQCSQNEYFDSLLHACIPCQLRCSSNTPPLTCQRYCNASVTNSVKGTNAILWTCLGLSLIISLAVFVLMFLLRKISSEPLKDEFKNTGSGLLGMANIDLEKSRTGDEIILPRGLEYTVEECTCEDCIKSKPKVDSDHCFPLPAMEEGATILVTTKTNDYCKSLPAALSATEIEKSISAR

[3] = target: Bio-huBCMA-His (biotinylated human BCMA with His tag) (human) (UniProt Q02223); assay: ELISA, periplasmic extract of scFv on biotinylated human BCMA-His

T1 sequence (A0A2K5UD97 entry or part of it limits assumed, form in doubt): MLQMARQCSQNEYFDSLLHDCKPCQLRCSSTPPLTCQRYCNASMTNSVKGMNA

Binder | PE Elisa Bio-cyBCMA-His [1] | PE FACS % Binding Hu BCMA [2] [%] | PE ELISA Bio-huBCMA-His [3]
anti-BCMA scFv clone from phage display, periplasmic extract (Table 3, second row; VH printed there as SEQ ID NO: 26, VL as SEQ ID NO: 25) (scFv) QITLRESGGDVVQPGRSLRLSCAASGFTFSSYAIHWVRQAPGKGLEWVAVTWHDGSNKYYAESVMGRFTISRDNSKNTLYLHMNSLRAEDTGVYYCARAKFGEPQYFQHWGQGTLVTVSSDIVMTQSPSFLSASVGDRVTITCRASQGINNYLAWYQQKPGIAPKLLIYAASTLQSGVPSRFGGSGSGTEFTLTISSLQPEDFATYYCQQLKSYPFTFGPGTKVEIK | 0.122 | 54.6 | –
anti-BCMA scFv clone from phage display, periplasmic extract (Table 3, first row; VH printed there as SEQ ID NO: 26, VL as SEQ ID NO: 23) (scFv, V domains shown, part only, linker not stated) VH: QITLRESGGDVVQPGRSLRLSCAASGFTFSSYAIHWVRQAPGKGLEWVAVTWHDGSNKYYAESVMGRFTISRDNSKNTLYLHMNSLRAEDTGVYYCARAKFGEPQYFQHWGQGTLVTVSS VL: DIVMTQSPSFLSASVGDRVTITCRASQGISSYLAWYQQKPGKAPKLLIYAASTLQSGVPSRFSGSGSGTEFTLTISSLQPEDFATYYCQQLNSYPWTFGQGTKVDIK | – | – | 1.1
anti-BCMA scFv clone from phage display, periplasmic extract (Table 3, second row; VH printed there as SEQ ID NO: 26, VL as SEQ ID NO: 25) (scFv, V domains shown, part only, linker not stated) VH: QITLRESGGDVVQPGRSLRLSCAASGFTFSSYAIHWVRQAPGKGLEWVAVTWHDGSNKYYAESVMGRFTISRDNSKNTLYLHMNSLRAEDTGVYYCARAKFGEPQYFQHWGQGTLVTVSS VL: DIVMTQSPSFLSASVGDRVTITCRASQGINNYLAWYQQKPGIAPKLLIYAASTLQSGVPSRFGGSGSGTEFTLTISSLQPEDFATYYCQQLKSYPFTFGPGTKVEIK | – | – | 1.11
anti-BCMA scFv clone from phage display, periplasmic extract (Table 3, third row; VH printed there as SEQ ID NO: 10, VL as SEQ ID NO: 27) (scFv, V domains shown, part only, linker not stated) VH: EVQLVESGGDVVQPGRSLRLSCAASGFTFSSYAIHWVRQAPGKGLEWVAVTWHDGSNKYYAESVMGRFTISRDNSKNTLYLHMNSLRAEDTGVYYCARAKFGEPQYFQHWGQGTTVTVSS VL: DIVMTQSPSFLSASVGDRVTITCRASQGISSYLAWYQQKPGKAPKLLIYAASTLQSGVPSRFSGSGSGTEFTLTISSLQPEDFATYYCQQLNSYPFTFGPGTKVDIK | – | – | 0.516
anti-BCMA scFv clone from phage display, periplasmic extract (Table 3, third row; VH printed there as SEQ ID NO: 10, VL as SEQ ID NO: 27) (scFv) EVQLVESGGDVVQPGRSLRLSCAASGFTFSSYAIHWVRQAPGKGLEWVAVTWHDGSNKYYAESVMGRFTISRDNSKNTLYLHMNSLRAEDTGVYYCARAKFGEPQYFQHWGQGTTVTVSSDIVMTQSPSFLSASVGDRVTITCRASQGISSYLAWYQQKPGKAPKLLIYAASTLQSGVPSRFSGSGSGTEFTLTISSLQPEDFATYYCQQLNSYPFTFGPGTKVDIK | 0.126 | 47.2 | –
anti-BCMA scFv clone from phage display, periplasmic extract (Table 3, first row; VH printed there as SEQ ID NO: 26, VL as SEQ ID NO: 23) (scFv) QITLRESGGDVVQPGRSLRLSCAASGFTFSSYAIHWVRQAPGKGLEWVAVTWHDGSNKYYAESVMGRFTISRDNSKNTLYLHMNSLRAEDTGVYYCARAKFGEPQYFQHWGQGTLVTVSSDIVMTQSPSFLSASVGDRVTITCRASQGISSYLAWYQQKPGKAPKLLIYAASTLQSGVPSRFSGSGSGTEFTLTISSLQPEDFATYYCQQLNSYPWTFGQGTKVDIK | 0.147 | 89 | –
